{"source": "patent US20230012273A1", "about": "(Boehringer Ingelheim, published 2023)", "binders": {"B1": {"name": "Antibody A10 (antibody, human IgG1, kappa, L234A L235A)", "heavy": "not shown", "light": "DIQMTQSPSSLSASVGDRVTITCRASQDINNYLAWFQQKPGKAPKSLIYTASSLHSGVPSKFSGSGSGTDFTLTISSLQPEDFATYYCQQYVSYPYTFGQGTKLEIKRTVAAPSVFIFPPSDEQLKSGTASVVCLLNNFYPREAKVQWKVDNALQSGNSQESVTEQDSKDSTYSLSSTLTLSKADYEKHKVYACEVTHQGLSSPVTKSFNRGEC"}, "B2": {"name": "Antibody A (antibody, human IgG1, kappa, L234A L235A)", "heavy": "not shown", "light": "B1 light"}, "B3": {"name": "Antibody B (antibody, human IgG1, kappa, L234A L235A, V domains shown)", "VH": "QVQLVQSGAEVKKPGASVKVSCKASGYTFTGNYMHWVRQAPGQGLEWMGWINPNSGGTNYAQKFQGRVTMTRDTSISTAYMELSRLRSDDTAVYYCVSGSGWYENYYYYGMDVWGQGTTVTVSS", "VL": "DIQMTQSPSSVSASVGDRVTITCRASQGISSWLAWYQQKPGKAPKLLIYAESSLQSGVPSRFSGSGSGTDFTLTISSLQPEDFATYYCQQANSFPLTFGGGTKVEIKR"}, "B4": {"name": "Anti-SIRPα antibody KWAR23 (antibody, V domains shown)", "VH": "EVQLQQSGAELVKPGASVKLSCTASGFNIKDYYIHWVQQRTEQGLEWIGRIDPEDGETKYAPKFQDKATITADTSSNTAYLHLSSLTSEDTAVYYCARWGAYWGQGTLVTVSS", "VL": "QIVLTQSPAIMSASPGEKVTLTCSASSSVSSSYLYWYQQKPGSSPKLWIYSTSNLASGVPARFSGSGSGTSYSLTISSMEAEDAASYFCHQWSSYPRTFGAGTKLELK"}}, "key": {"[1]": {"biological_target": "T1, full-length human SIRPβL (NP_001129316.1) on cells (human, UniProt Q5TFQ8 30-398)", "T1 construct": "one molecule for U937 SIRPα-KO transfectants (NP_001129316.1) and Expi-CHO transfectants (Q5TFQ8); also called SIRPβ1v3; βL WT", "T1 sequence (Q5TFQ8 30-398)": "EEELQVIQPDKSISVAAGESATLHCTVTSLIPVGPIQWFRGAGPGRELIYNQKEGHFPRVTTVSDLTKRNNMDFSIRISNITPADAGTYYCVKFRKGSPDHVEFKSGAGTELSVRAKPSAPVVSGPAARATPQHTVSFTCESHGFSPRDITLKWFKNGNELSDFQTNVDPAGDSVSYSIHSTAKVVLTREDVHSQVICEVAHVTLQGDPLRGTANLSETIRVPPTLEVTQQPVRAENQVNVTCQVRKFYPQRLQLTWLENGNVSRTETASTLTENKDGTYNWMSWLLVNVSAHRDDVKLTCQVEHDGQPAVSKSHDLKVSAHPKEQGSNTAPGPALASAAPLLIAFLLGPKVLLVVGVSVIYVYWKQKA", "assay": "flow cytometry, Expi-CHO cells expressing full-length wild-type human SIRPβL", "description": "Expi-CHO parental cells are transduced with lentiviruses containing either full-length wild-type human SIRPβL (Q5TFQ8) or full-length human SIRPβL with a single amino acid point mutation (Table 62) and sorted to achieve matching expression levels. These cells are blocked with donkey IgG and incubated on ice with increasing concentrations of antibodies for 60 minutes, washed and stained with AF647-conjugated donkey F(ab′)₂ anti-human IgG antibodies. Stained cells are washed, fixed, and analyzed by flow cytometry. Median fluorescent intensity is determined and used as a measure of antibody binding.\nA single amino acid substitution (H→D) introduced within the loop region maintained, strengthened, or facilitated antibody binding to these cells (FIG. 34B, Table 63)."}, "[2]": {"biological_target": "T2, mouse SIRPα extracellular domain + His-tag (NP_031573) (mouse, UniProt P97797 32-373)", "T2 chain": "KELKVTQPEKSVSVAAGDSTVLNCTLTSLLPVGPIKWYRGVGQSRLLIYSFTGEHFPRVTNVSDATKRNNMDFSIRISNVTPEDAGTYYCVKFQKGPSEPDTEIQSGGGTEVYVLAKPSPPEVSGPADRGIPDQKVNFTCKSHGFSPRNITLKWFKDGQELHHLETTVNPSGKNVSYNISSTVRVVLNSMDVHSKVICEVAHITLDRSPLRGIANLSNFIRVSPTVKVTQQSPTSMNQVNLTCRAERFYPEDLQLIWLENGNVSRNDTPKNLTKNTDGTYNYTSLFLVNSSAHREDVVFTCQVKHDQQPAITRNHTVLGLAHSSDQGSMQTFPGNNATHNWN", "assay": "SPR, Ab captured, ECD-His analyte", "in_short": "(§1)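 SPR; Ab capture surface, ethanolamine-deactivated (1M, 420 s, 10 μl/min). Analyte: SIRP ECD+His, 2-fold dilution series in 1×HBS-EP+. Inject 300 s @ 30 μl/min; dissoc. 600 s.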"}, "[3]": {"biological_target": "T3, cynomolgus SIRPα extracellular domain + His-tag (NP_001271679) (cynomolgus monkey)", "T3 construct": "also called CySIRPα NP_001271679; cynoSIRPα", "T3 chain": "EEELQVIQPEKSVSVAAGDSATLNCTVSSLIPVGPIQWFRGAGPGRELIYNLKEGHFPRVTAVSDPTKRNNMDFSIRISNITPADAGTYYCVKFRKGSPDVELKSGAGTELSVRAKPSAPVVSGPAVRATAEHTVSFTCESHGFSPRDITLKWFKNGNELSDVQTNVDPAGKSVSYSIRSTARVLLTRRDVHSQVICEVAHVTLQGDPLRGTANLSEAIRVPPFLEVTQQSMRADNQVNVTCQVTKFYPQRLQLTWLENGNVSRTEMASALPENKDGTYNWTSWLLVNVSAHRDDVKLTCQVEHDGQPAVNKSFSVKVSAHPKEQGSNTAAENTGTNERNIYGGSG", "assay": "SPR, Ab captured, ECD-His analyte", "in_short": "as §1"}, "[4]": {"biological_target": "T4, cynomolgus SIRPα extracellular domain + His-tag (EGM_02252) (cynomolgus monkey)", "T4 construct": "also called CySIRPα EGM_02252; cynoSIRPα", "T4 chain": "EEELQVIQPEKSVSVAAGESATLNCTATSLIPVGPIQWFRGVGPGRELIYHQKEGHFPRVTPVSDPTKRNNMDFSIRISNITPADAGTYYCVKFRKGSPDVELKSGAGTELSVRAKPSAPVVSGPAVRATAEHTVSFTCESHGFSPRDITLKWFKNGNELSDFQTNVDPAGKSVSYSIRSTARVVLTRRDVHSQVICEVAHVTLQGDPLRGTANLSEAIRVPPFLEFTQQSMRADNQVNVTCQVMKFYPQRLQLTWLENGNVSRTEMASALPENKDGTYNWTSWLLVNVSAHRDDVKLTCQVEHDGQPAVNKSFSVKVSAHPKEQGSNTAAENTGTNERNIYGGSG", "assay": "SPR, Ab captured, ECD-His analyte", "in_short": "as §1"}, "[5]": {"biological_target": "T5, cynomolgus SIRPβ1v3 extracellular domain + His-tag (XP_005568593) (cynomolgus monkey)", "T5 construct": "also called Cyno SIRPβ1v3; cynoSIRPβ1v3", "T5 chain": "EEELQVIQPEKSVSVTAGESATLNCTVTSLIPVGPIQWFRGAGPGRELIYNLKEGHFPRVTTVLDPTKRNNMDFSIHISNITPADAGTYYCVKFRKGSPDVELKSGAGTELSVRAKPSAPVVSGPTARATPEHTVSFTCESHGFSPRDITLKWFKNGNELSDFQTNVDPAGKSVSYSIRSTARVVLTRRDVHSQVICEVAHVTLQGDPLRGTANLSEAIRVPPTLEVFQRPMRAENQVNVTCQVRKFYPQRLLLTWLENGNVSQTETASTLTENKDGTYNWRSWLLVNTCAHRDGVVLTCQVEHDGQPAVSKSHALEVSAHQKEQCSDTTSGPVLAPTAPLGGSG", "assay": "SPR, Ab captured, ECD-His analyte", "in_short": "as §1"}, "[6]": {"biological_target": "T6, full-length human SIRPγ (NP_061026.2) on cells (human, UniProt Q9P1W8 29-387)", "T6 construct": "also called CHO-hSIRPγ; γ WT", "T6 sequence (Q9P1W8 29-387)": "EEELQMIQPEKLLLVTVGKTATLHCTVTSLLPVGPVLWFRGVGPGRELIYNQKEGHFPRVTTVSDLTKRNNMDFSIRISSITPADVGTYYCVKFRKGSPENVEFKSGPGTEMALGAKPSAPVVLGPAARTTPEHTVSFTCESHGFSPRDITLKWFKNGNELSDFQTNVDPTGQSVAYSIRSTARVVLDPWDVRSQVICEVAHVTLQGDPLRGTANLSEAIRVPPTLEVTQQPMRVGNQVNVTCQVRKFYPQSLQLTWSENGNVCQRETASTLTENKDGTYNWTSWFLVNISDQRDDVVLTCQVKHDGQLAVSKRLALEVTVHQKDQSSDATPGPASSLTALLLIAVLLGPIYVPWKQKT", "assay": "flow cytometry, CHO cells; CHO cells expressing hSIRPγ; n = 1", "description": "Antibody binding to cells expressing human SIRPγ(NP_061026.2) is evaluated by flow cytometry. SIRPγ-expressing CHO cells are blocked with donkey IgG and incubated on ice with increasing concentrations of antibody for 60 minutes, washed and stained with AF647-conjugated donkey F(ab′)₂ anti-human IgG secondary reagent. Cells are washed, fixed, and analyzed by flow cytometry. Median fluorescent intensity is determined and used as a measure of antibody binding."}, "[7]": {"biological_target": "T6, full-length human SIRPγ (NP_061026.2) …", "assay": "flow cytometry, CHO cells"}, "[8]": {"biological_target": "T7, full-length human SIRPβ1 D→H on Expi-CHO cells (human, UniProt O00241 30-398)", "T7 construct": "the entry already carries the change (PDDV to PDHV)", "T7 sequence (O00241 30-398 D130H)": "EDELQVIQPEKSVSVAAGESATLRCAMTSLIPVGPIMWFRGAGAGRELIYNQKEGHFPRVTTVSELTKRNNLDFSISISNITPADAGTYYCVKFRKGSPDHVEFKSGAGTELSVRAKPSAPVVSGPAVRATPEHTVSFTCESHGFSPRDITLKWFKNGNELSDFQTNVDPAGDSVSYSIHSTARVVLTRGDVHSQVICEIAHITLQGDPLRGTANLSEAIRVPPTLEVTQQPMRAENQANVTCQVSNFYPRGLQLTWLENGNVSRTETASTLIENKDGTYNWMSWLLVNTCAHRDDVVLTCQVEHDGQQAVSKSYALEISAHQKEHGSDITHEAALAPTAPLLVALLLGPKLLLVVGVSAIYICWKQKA", "assay": "flow cytometry, Expi-CHO cells", "description": "These cells are blocked with donkey IgG and incubated on ice with increasing concentrations of antibodies for 60 minutes, washed and stained with AF647-conjugated donkey F(ab′)₂ anti-human IgG antibodies. Stained cells are washed, fixed, and analyzed by flow cytometry. Median fluorescent intensity is determined and used as a measure of antibody binding."}}, "data": [{"binder": "B1", "values": [{"measurement": "binding result", "setting": "[1]", "value": "no binding (tested: about 67 nM)"}]}, {"binder": "B2", "values": [{"measurement": "binding result", "setting": "[2]", "value": "no binding"}, {"measurement": "Kd", "setting": "[3]", "value": 453, "unit": "nM"}, {"measurement": "Kd", "setting": "[4]", "value": 201, "unit": "nM"}, {"measurement": "Kd", "setting": "[5]", "value": 201, "unit": "nM"}]}, {"binder": "B3", "values": [{"measurement": "EC50", "setting": "[6]", "value": 11.8, "unit": "nM"}]}, {"binder": "B4", "values": [{"measurement": "EC50", "setting": "[7]", "value": 2.7, "unit": "nM"}, {"measurement": "EC50", "setting": "[8]", "value": 0.01, "unit": "nM"}]}]}
